This is an account of results in patent US20150175665A1 (IPSEN PHARMA S A S, published 2015).

What is called Ki is the equilibrium dissociation constant of an inhibitor or competing ligand from its target.

The labels stand for the following.
T1: human recombinant GIP receptor (human, UniProt P48546 22-466)
T1 construct: whole, on cells; Assayed as washed membranes of CHO-K1 cells expressing the receptor; also called hGIP receptor
T1 sequence (looked up): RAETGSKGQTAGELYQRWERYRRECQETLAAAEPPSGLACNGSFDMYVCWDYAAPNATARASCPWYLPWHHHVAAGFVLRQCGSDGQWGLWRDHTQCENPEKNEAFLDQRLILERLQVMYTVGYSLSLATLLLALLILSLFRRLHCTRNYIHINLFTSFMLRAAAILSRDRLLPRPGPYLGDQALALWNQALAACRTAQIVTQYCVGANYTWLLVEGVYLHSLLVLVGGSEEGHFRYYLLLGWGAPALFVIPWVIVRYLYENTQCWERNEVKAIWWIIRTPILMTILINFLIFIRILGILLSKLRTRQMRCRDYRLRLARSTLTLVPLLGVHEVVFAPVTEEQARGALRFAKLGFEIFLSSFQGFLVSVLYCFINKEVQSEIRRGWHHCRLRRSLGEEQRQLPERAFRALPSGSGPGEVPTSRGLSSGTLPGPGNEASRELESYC

B1: (4Hppa^1, Aib^2)hGIP(1-30)-NH2 (peptide)
peptide: XXEGTFISDYSIAMDKIHQQDFVNWLLAQK
modifications: 4Hppa at 1; Aib at 2; C-terminal amide
B2: (4Hppa^1, 4Hyp^3, A6c^7)hGIP(1-42)-OH (peptide)
peptide: [Desaminotyrosyl]A[Hyp]GTF[Ac6c]SDYSIAMDKIHQQDFVNWLLAQKGKKNDWKHNITQ-OH
B3: (4Hppa^1, hPro^3, A6c^7)hGIP(1-42)-OH (peptide)
peptide: [Desaminotyrosyl]A[Pip]GTF[Ac6c]SDYSIAMDKIHQQDFVNWLLAQKGKKNDWKHNITQ-OH
B4: (4Hppa^1, Aib^2, Nle^14)hGIP(1-30)-NH2 (peptide)
peptide: XXEGTFISDYSIAXDKIHQQDFVNWLLAQK
modifications: 4Hppa at 1; Aib at 2; Nle at 14; C-terminal amide
B5: (3Br-Tyr^1, Aib^2, A5c^11, 14, His^43)hGIP(1-43)-OH (peptide)
peptide: YXEGTFISDYXIAXDKIHQQDFVNWLLAQKGKKNDWKHNITQH
modifications: 3Br-Tyr at 1; Aib at 2; A5c at 11 and 14
B6: (3MeO-Tyr^1, Aib^2, A5c^11, His^43)hGIP(1-43)-OH (peptide)
peptide: XXEGTFISDYXIAMDKIHQQDFVNWLLAQKGKKNDWKHNITQH
modifications: 3MeO-Tyr at 1; Aib at 2; A5c at 11
B7: (7HO-Tic^1, Aib^2, A5c^11, His^43)hGIP(1-43)-OH (peptide)
peptide: XXEGTFISDYXIAMDKIHQQDFVNWLLAQKGKKNDWKHNITQH
modifications: 7HO-Tic at 1; Aib at 2; A5c at 11
B8: (4CN-Phe^1, Aib^2, A5c^11, His^43)hGIP(1-43)-OH (peptide)
peptide: FXEGTFISDYXIAMDKIHQQDFVNWLLAQKGKKNDWKHNITQH
modifications: 4CN-Phe at 1; Aib at 2; A5c at 11
B9: (3MeO-Tyr^1, Aib^2, A5c^11, 14, 41-His^43)hGIP(1-43)-OH (peptide)
peptide: XXEGTFISDYXIAXDKIHQQDFVNWLLAQKGKKNDWKHNIXQH
modifications: 3MeO-Tyr at 1; Aib at 2; A5c at 11, 14 and 41
B10: (hTyr^1, Aib^2, A5c^11, His^43)hGIP(1-43)-OH (peptide)
peptide: XXEGTFISDYXIAMDKIHQQDFVNWLLAQKGKKNDWKHNITQH
modifications: hTyr at 1; Aib at 2; A5c at 11
B11: (3MeO-Tyr^1, Aib^2, A5c^11, 14, His^43)hGIP(1-43)-OH (peptide)
peptide: XXEGTFISDYXIAXDKIHQQDFVNWLLAQKGKKNDWKHNITQH
modifications: 3MeO-Tyr at 1; Aib at 2; A5c at 11 and 14

[ ]: non-standard residue; d: D form. The star is where a group is joined. Desaminotyrosyl = O=C(CCc1ccc(O)cc1)*; Hyp = O=C(O)[C@@H]1C[C@@H](O)CN1; Pip = O=C(O)[C@@H]1CCCCN1; Ac6c = NC1(C(=O)O)CCCCC1

The experiment has as its target T1, human recombinant GIP receptor. The experiment can be described thus: displacement of [125I]GIP, membranes of CHO-K1 cells expressing human GIP receptor. The method, then:
Membranes for in vitro receptor binding assays were prepared by homogenizing the CHO—K1 clonal cells expressing the human recombinant GIP receptor, with a Brinkman Polytron (setting 6, 15 sec), in ice-cold 50 mM Tris-HCl and then subjected to two centrifugations at 39,000 g for 10 minutes, with a resuspension in fresh buffer in between. For the assay, aliquots of the washed membrane preparations were incubated (100 minutes at 25° C. with 0.05 nM [¹²⁵1]GIP (2200 Ci/mmol) in 50 mM Tris-HCl, 0.1 mg/ml bacitracin, and 0.1% BSA. The final assay volume was 0.5 ml. The incubations were terminated by rapid filtration through GF/C filters (pre-soaked in 0.5% polyethylenimine) using a Brandel filtration manifold. Each tube and filter were then washed three times with 5-ml aliquots of ice-cold buffer.
Specific binding was defined as the total radioligand bound minus that bound in the presence of 1000 nM GIP.
In general terms: In a radioligand displacement assay an active substance lowers the binding of a labelled ligand.
As for B1, the Ki worked out at 1.58 nM.
For the molecule B2, the Ki came to 251 nM.
Turning to B3, the Ki stood at 707 nM.
Take B4: the inhibition constant (Ki) stood at 2.95 nM.
Regarding B5, the Ki was 0.92 nM.
Regarding B6, the Ki came to 3.9 nM.
The value for B7 was 4.82 nM.
As for B8, the figure is 5.12 nM.
The value for B9 was 6.4 nM.
As to B10, the Ki stood at 9.42 nM.
The value for B11 was 9.34 nM.
